# Publication PMC13480635
# How the values were obtained:
# [1] = molecular target: Trypanosoma brucei gambiense variant surface glycoprotein LiTat 1.3 (Lille Trypanozoon antigen type 1.3) (Trypanosoma brucei gambiense); assay: SAXS; SEC-SAXS, Shodex KW404-4F column, 20 mM HEPES, 150 mM NaCl, 3% glycerol, pH 7.4; 50 uL at 15.51 mg/mL injected; curve from the first (major) elution peak
# [2] = molecular target: Trypanosoma brucei gambiense variant surface glycoprotein LiTat 1.3 (Lille Trypanozoon antigen type 1.3) (Trypanosoma brucei gambiense); assay: SEC-MALS; Agilent Bio SEC-3 column, PBS; samples at 0.5 mg/mL and 5 mg/mL, 50 uL injected
substance,measurement,setting,value
Trypanosoma brucei gambiense variant surface glycoprotein LiTat 1.3 (Lille Trypanozoon antigen type 1.3) (natural protein),stoichiometry N,[1],3
same,stoichiometry N,[2],3
